According to article doi:10.1101/2020.08.03.234229 (bioRxiv, 2020):

Biological target: T1, TSEN15 tryptic fragment (residues 23 to 170) (human, UniProt Q8WW01 23-170)
T1 sequence (looked up): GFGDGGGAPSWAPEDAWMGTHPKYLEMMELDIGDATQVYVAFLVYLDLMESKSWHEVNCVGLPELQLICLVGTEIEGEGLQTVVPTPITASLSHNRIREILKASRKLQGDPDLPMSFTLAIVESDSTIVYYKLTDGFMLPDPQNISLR
Assay: SEC

B1: TSEN34 tryptic fragment (residues 208 to 310) (domain or fragment, human, UniProt Q9BSV6 208-310, looked up)
chain: DWPHAGRPAHELRYSIYRDLWERGFFLSAAGKFGGDFLVYPGDPLRFHAHYIAQCWAPEDTIPLQDLVAAGRLGTSVRKTLLLCSPQPDGKVVYTSLQWASLQ
  binding result: binds
